Target: T1, GST-SicA (Salmonella enterica serovar Typhimurium, UniProt P69066 1-165)
T1 construct: SicA, the chaperone for SipC, Salmonella enterica serovar Typhimurium; source: GST-tagged recombinant protein, purified
Assay: pull-down; purified His-SipC-N and derivatives immobilised on Ni-NTA beads, 1 hr at 4°C; GST or GST-SicA added, 2 hrs at 4°C; washed four times in PBS with 1% NP-40; blotted with anti-His and anti-GST
Details: both partners purified

T1 sequence (P69066 whole entry): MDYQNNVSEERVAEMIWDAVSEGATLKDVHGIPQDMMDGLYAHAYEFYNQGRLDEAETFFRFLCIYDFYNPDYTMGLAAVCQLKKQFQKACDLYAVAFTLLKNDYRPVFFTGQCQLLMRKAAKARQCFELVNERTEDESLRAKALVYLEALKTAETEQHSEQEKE

B1: His-SipC-N (domain or fragment)
chain: MLISNVGINPAAYLNNHSVENSSQTASQSVSAKDILNSIGISSSKVSDLGLSPTLSAPAPGVLTQTPGTITSFLKASIQNTDMNQDLNALANNVTTKANEVVQTQLREQQAEVGKFFDIS
notes: N-terminal region of SipC of Salmonella enterica serovar Typhimurium; also called wild-type SipC-N; source: His-tagged recombinant protein, purified
  binding result: binds
